Experimental data: the supplement of paper PMC9112550, “Optimization of the antimicrobial peptide Bac7 by deep mutational scanning” (BMC Biology, 2022)

Tested on: Escherichia coli TOP10
Assay: shrunken log2 fold change of peptide-encoding DNA abundance (4.5 h post-induction vs induction); higher = less antimicrobial activity (less host growth inhibition)
Details: time post-induction: 4.5 h; library: site-saturation at positions 5, 18, 19, 20
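Also: peptides expressed intracellularly from a pBAD plasmid library in pooled LB shake-flask culture, induced with 0.3% L-arabinose, DNA abundance read by NGS, three biological replicates, DESeq2 with apeglm shrinkage.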

| Sequence | shrunken log2 fold change |
| --- | --- |
| RRIRIRPPRLPRPRPRPQYFPRP | -0.128 |
| RRIRLRPPRLPRPRPRPPIHPRP | -0.117 |
| RRIRQRPPRLPRPRPRPNHQPRP | -0.0841 |
| RRIRLRPPRLPRPRPRPMHFPRP | 0.108 |
| RRIRGRPPRLPRPRPRPRTYPRP | 0.0193 |
| RRIRRRPPRLPRPRPRPVGDPRP | -0.0486 |
| RRIRCRPPRLPRPRPRPGVGPRP | 0.455 |
| RRIRPRPPRLPRPRPRPMTQPRP | 0.272 |
| RRIRVRPPRLPRPRPRPVNAPRP | -0.0836 |
| RRIRDRPPRLPRPRPRPSSWPRP | -0.0298 |
| RRIRRRPPRLPRPRPRPPMNPRP | 0.172 |
| RRIRRRPPRLPRPRPRPIDNPRP | -0.349 |
| RRIRNRPPRLPRPRPRPGPPPRP | 0.581 |
| RRIRDRPPRLPRPRPRPLLYPRP | 0.116 |
| RRIRVRPPRLPRPRPRPVQEPRP | -0.0375 |
| RRIRCRPPRLPRPRPRPKCPPRP | 0.0246 |
| RRIRSRPPRLPRPRPRPTKFPRP | 0.0549 |
| RRIRYRPPRLPRPRPRPECVPRP | -0.282 |
| RRIRSRPPRLPRPRPRPPIEPRP | 0.314 |
| RRIRARPPRLPRPRPRPVTSPRP | 0.293 |
| RRIRTRPPRLPRPRPRPWHNPRP | -0.0242 |
| RRIRRRPPRLPRPRPRPCRPPRP | 0.0965 |
| RRIRQRPPRLPRPRPRPCAEPRP | -0.135 |

| Sequence | shrunken log2 fold change |
| --- | --- |
| RRIRKRPPRLPRPRPRPTCLPRP | 0.0518 |
| RRIRGRPPRLPRPRPRPKHHPRP | 0.309 |
| RRIRCRPPRLPRPRPRPFEFPRP | 0.0705 |
| RRIRHRPPRLPRPRPRPEMRPRP | 0.122 |
| RRIRHRPPRLPRPRPRPVASPRP | -0.122 |
| RRIRRRPPRLPRPRPRPLDHPRP | -0.357 |
| RRIRKRPPRLPRPRPRPMQRPRP | 0.744 |
| RRIRFRPPRLPRPRPRPVLCPRP | -0.221 |
| RRIRNRPPRLPRPRPRPIPAPRP | -0.0451 |
| RRIRWRPPRLPRPRPRPIMSPRP | -0.161 |
| RRIRQRPPRLPRPRPRPQCWPRP | -0.0996 |
| RRIRKRPPRLPRPRPRPVRFPRP | 0.397 |
| RRIRNRPPRLPRPRPRPNCHPRP | 0.0111 |
| RRIRPRPPRLPRPRPRPNYNPRP | -0.676 |
| RRIRGRPPRLPRPRPRPTMHPRP | 0.715 |
| RRIRRRPPRLPRPRPRPPNYPRP | 0.0616 |
| RRIRNRPPRLPRPRPRPFVLPRP | -0.451 |
| RRIRARPPRLPRPRPRPQQTPRP | 0.141 |
| RRIRQRPPRLPRPRPRPIEEPRP | -0.00208 |
| RRIRMRPPRLPRPRPRPMWCPRP | 0.283 |
| RRIRIRPPRLPRPRPRPMNDPRP | -0.00303 |
| RRIRYRPPRLPRPRPRPLNVPRP | 0.0468 |
| RRIRVRPPRLPRPRPRPRNPPRP | 0.148 |

| Sequence | shrunken log2 fold change |
| --- | --- |
| RRIRRRPPRLPRPRPRPKNSPRP | -0.0537 |
| RRIRVRPPRLPRPRPRPACPPRP | 0.311 |
| RRIRARPPRLPRPRPRPKHCPRP | 0.0395 |
| RRIRPRPPRLPRPRPRPMAHPRP | -0.165 |
| RRIRTRPPRLPRPRPRPGREPRP | 0.0772 |
| RRIRKRPPRLPRPRPRPNMMPRP | 0.172 |
| RRIRHRPPRLPRPRPRPWLHPRP | -0.00987 |
| RRIRARPPRLPRPRPRPTRIPRP | 2.82 |
| RRIRDRPPRLPRPRPRPVNQPRP | 0.0383 |
| RRIRYRPPRLPRPRPRPVIKPRP | -0.585 |
| RRIRFRPPRLPRPRPRPVNIPRP | -0.16 |
| RRIRSRPPRLPRPRPRPTGFPRP | -0.0473 |
| RRIRQRPPRLPRPRPRPQQSPRP | -0.0224 |
| RRIRSRPPRLPRPRPRPIPAPRP | -0.286 |
| RRIRCRPPRLPRPRPRPASMPRP | -0.412 |
| RRIRCRPPRLPRPRPRPHTLPRP | -0.731 |
| RRIRNRPPRLPRPRPRPAKCPRP | -0.384 |
| RRIRARPPRLPRPRPRPPSGPRP | 0.597 |
| RRIRLRPPRLPRPRPRPSHLPRP | -0.491 |
| RRIRRRPPRLPRPRPRPYRIPRP | -0.594 |
| RRIRCRPPRLPRPRPRPMCWPRP | 0.0297 |
| RRIRYRPPRLPRPRPRPRTNPRP | -0.492 |
| RRIRERPPRLPRPRPRPQHSPRP | -0.597 |

| Sequence | shrunken log2 fold change |
| --- | --- |
| RRIRRRPPRLPRPRPRPHLEPRP | 0.0779 |
| RRIRPRPPRLPRPRPRPQYAPRP | -0.103 |
| RRIRKRPPRLPRPRPRPAIPPRP | 0.000942 |
| RRIRNRPPRLPRPRPRPLEDPRP | 0.0414 |
| RRIRMRPPRLPRPRPRPIQQPRP | -0.0206 |
| RRIRIRPPRLPRPRPRPSKSPRP | -0.413 |
| RRIRMRPPRLPRPRPRPESKPRP | 2.93 |
| RRIRWRPPRLPRPRPRPDMLPRP | 0.142 |
| RRIRSRPPRLPRPRPRPYEKPRP | -1.08 |
| RRIRDRPPRLPRPRPRPIHGPRP | -0.0134 |
| RRIRARPPRLPRPRPRPMKLPRP | 0.0594 |
| RRIRDRPPRLPRPRPRPNHYPRP | -0.459 |
| RRIRCRPPRLPRPRPRPFWKPRP | -0.271 |
| RRIRQRPPRLPRPRPRPTSFPRP | -0.0413 |
| RRIRGRPPRLPRPRPRPGEIPRP | 0.727 |
| RRIRERPPRLPRPRPRPNNYPRP | -0.821 |
| RRIRGRPPRLPRPRPRPHHTPRP | -0.12 |
| RRIRKRPPRLPRPRPRPNQIPRP | 0.105 |
| RRIRKRPPRLPRPRPRPAFCPRP | 0.422 |
| RRIRYRPPRLPRPRPRPGRHPRP | -0.203 |
| RRIRRRPPRLPRPRPRPKCNPRP | -0.0456 |
| RRIRGRPPRLPRPRPRPWSLPRP | 0.094 |
